Experimental data published in PMC11187625, “New Labeled PET Analogues Enable the Functional Screening and Characterization of PET-Degrading Enzymes” (ACS Sustainable Chemistry & Engineering, 2024).

Columns and labels:
Experiment in all cases: fluorescence, 4-mU release
Conditions in all cases: 0.1 M phosphate pH 7, 30 °C, 5% DMSO
[1] = substrate: CCOCCOC(=O)c1ccc(C(=O)Oc2ccc3c(C)cc(=O)oc3c2)cc1; format: biochemical, Thermothelomyces thermophilus
Description: (§1) fluorescence, 4-mU release on StGE2 (glucuronoyl esterase)

[2] = substrate: COC(=O)c1ccc(C(=O)Oc2ccc3c(C)cc(=O)oc3c2)cc1; format: biochemical, Thermothelomyces thermophilus
Description: as §1

[3] = substrate: CCOCCOC(=O)c1ccc(C(=O)Oc2ccc3c(C)cc(=O)oc3c2)cc1; format: biochemical, unidentified prokaryotic organism
Description: (§2) fluorescence, 4-mU release on LCC^ICCG (leaf-branch compost cutinase ICCG variant)

[4] = substrate: COC(=O)c1ccc(C(=O)OCCOC(=O)c2ccc(C(=O)Oc3ccc4c(C)cc(=O)oc4c3)cc2)cc1; format: biochemical, unidentified prokaryotic organism
Description: as §2

[5] = substrate: COC(=O)c1ccc(C(=O)Oc2ccc3c(C)cc(=O)oc3c2)cc1; format: biochemical, unidentified prokaryotic organism
Description: as §2

[6] = substrate: CCOCCOC(=O)c1ccc(C(=O)Oc2ccc3c(C)cc(=O)oc3c2)cc1; format: biochemical, Pseudideonella sakaiensis
Description: (§3) fluorescence, 4-mU release on IsPETase

[7] = substrate: COC(=O)c1ccc(C(=O)OCCOC(=O)c2ccc(C(=O)Oc3ccc4c(C)cc(=O)oc4c3)cc2)cc1; format: biochemical, Pseudideonella sakaiensis
Description: as §3

[8] = substrate: COC(=O)c1ccc(C(=O)Oc2ccc3c(C)cc(=O)oc3c2)cc1; format: biochemical, Pseudideonella sakaiensis
Description: as §3

B1: StGE2 (glucuronoyl esterase) (Thermothelomyces thermophilus ATCC 42464) (protein)
chain: APMNHIFERQDTCSVSDNYPTVNSAKLPDPFTTASGEKVTTKDQFECRRAEINKILQQYELGEYPGPPDSVEASLSGNSITVRVTVGSKSISFSASIRKPSGAGPFPAIIGIGGASIPIPSNVATITFNNDEFGAQMGSGSRGQGKFYDLFGRDHSAGSLTAWAWGVDRLIDGLEQVGAQASGIDTKRLGVTGCSRNGKGAFITGALVDRIALTIPQESGAGGAACWRISDQQKAAGANIQTAAQIITENPWFSRNFDPHVNSITSVPQDHHLLAALIVPRGLAVFENNIDWLGPVSTTGCMAAGRLIYKAYGVPNNMGFSLVGGHNHCQFPSSQNQDLNSYINYFLLGQGSPSGVEHSDVNVNVAEWAPWGAGAPTLA
notes: recombinant, expressed in Komagataella phaffii (Pichia pastoris), purified
B1 gave a Km [1] of 4.7 ± 0.4 µM and a Km [2] of 0.7 ± 0.1 µM.

B2: LCC^ICCG (leaf-branch compost cutinase ICCG variant) (unidentified prokaryotic organism; D238C/F243I/S283C/Y127G) (protein)
chain: QSNPYQRGPNPTRSALTADGPFSVATYTVSRLSVSGFGGGVIYYPTGTSLTFGGIAMSPGYTADASSLAWLGRRLASHGFVVLVINTNSRFDGPDSRASQLSAALNYLRTSSPSAVRARLDANRLAVAGHSMGGGGTLRIAEQNPSLKAAVPLTPWHTDKTFNTSVPVLIVGAEADTVAPVSQHAIPFYQNLPSTTPKVYVELCNASHIAPNSNNAAISVYTISWMKLWVDNDTRYRQFLCNVNDPALCDFRTNNRHCQ
notes: recombinant engineered variant ICCG, pET-22b(+), E. coli BL21, intracellular fraction, purified
B2 showed a Km [3] of 7.2 ± 0.7 µM, a kcat [3] of 5.8e-05 ± 2e-06 s⁻¹ and a Km [4] of 21.7 ± 2.8 µM. The kcat [4] was 1.3e-05 ± 1e-06 s⁻¹, the Km [5] was 1.6 ± 0.1 µM and the kcat [5] was 3.4e-05 ± 1e-06 s⁻¹.

B3: IsPETase (Pseudideonella sakaiensis) (protein)
chain: QTNPYARGPNPTAASLEASAGPFTVRSFTVSRPSGYGAGTVYYPTNAGGTVGAIAIVPGYTARQSSIKWWGPRLASHGFVVITIDTNSTLDQPSSRSSQQMAALRQVASLNGTSSSPIYGKVDTARMGVMGWSMGGGGSLISAANNPSLKAAAPQAPWDSSTNFSSVTVPTLIFACENDSIAPVNSSALPIYDSMSRNAKQFLEINGGSHSCANSGNSNQALIGKKGVAWMKRFMDNDTRYSTFACENPNSTRVSDFRTANCS
notes: recombinant, pET-22b(+), E. coli BL21, intracellular fraction, purified
Work on B3 yielded a Km [6] of 9.3 ± 0.8 µM, a kcat [6] of 3.8e-05 ± 1e-06 s⁻¹ and a Km [7] of 34.1 ± 5.5 µM. The Km [8] was 6.7 ± 0.6 µM and the kcat [8] was 5e-05 ± 2e-06 s⁻¹.
